Laboratory results from publication PMC7948593, “Dynamic multimerization of Dab2–Myosin VI complexes regulates cargo processivity while minimizing cortical actin reorganization” (The Journal of Biological Chemistry, 2021).
Ends that are not written are not given here.

T1: Myosin VI cargo-binding domain (CBD) with C-terminal mCerulean (human, UniProt Q9UM54 991-1294, C-terminal mCerulean omitted. Limits are those printed for the Kd FRET assay (CBD 991-1294, LI+SI isoform of 1294 aa); the construct list instead gives 1030-1284.)
T1 chain: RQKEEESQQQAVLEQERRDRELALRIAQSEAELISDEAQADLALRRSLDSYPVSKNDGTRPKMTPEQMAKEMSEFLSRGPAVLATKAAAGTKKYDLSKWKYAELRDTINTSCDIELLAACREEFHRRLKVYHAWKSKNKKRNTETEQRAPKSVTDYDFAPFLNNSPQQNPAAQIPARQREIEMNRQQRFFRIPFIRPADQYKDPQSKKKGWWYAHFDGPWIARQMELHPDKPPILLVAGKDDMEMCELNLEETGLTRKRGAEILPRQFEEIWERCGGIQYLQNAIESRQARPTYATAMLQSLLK

B1: Cy3-labeled full-length myosin VI (natural protein, human, UniProt Q9UM54 1-1294, looked up)
chain: MEDGKPVWAPHPTDGFQMGNIVDIGPDSLTIEPLNQKGKTFLALINQVFPAEEDSKKDVEDNCSLMYLNEATLLHNIKVRYSKDRIYTYVANILIAVNPYFDIPKIYSSEAIKSYQGKSLGTRPPHVFAIADKAFRDMKVLKMSQSIIVSGESGAGKTENTKFVLRYLTESYGTGQDIDDRIVEANPLLEAFGNAKTVRNNNSSRFGKFVEIHFNEKSSVVGGFVSHYLLEKSRICVQGKEERNYHIFYRLCAGASEDIREKLHLSSPDNFRYLNRGCTRYFANKETDKQILQNRKSPEYLKAGSMKDPLLDDHGDFIRMCTAMKKIGLDDEEKLDLFRVVAGVLHLGNIDFEEAGSTSGGCNLKNKSAQSLEYCAELLGLDQDDLRVSLTTRVMLTTAGGTKGTVIKVPLKVEQANNARDALAKTVYSHLFDHVVNRVNQCFPFETSSYFIGVLDIAGFEYFEHNSFEQFCINYCNEKLQQFFNERILKEEQELYQKEGLGVNEVHYVDNQDCIDLIEAKLVGILDILDEENRLPQPSDQHFTSAVHQKHKDHFRLTIPRKSKLAVHRNIRDDEGFIIRHFAGAVCYETTQFVEKNNDALHMSLESLICESRDKFIRELFESSTNNNKDTKQKAGKLSFISVGNKFKTQLNLLLDKLRSTGASFIRCIKPNLKMTSHHFEGAQILSQLQCSGMVSVLDLMQGGYPSRASFHELYNMYKKYMPDKLARLDPRLFCKALFKALGLNENDYKFGLTKVFFRPGKFAEFDQIMKSDPDHLAELVKRVNHWLTCSRWKKVQWCSLSVIKLKNKIKYRAEACIKMQKTIRMWLCKRRHKPRIDGLVKVGTLKKRLDKFNEVVSVLKDGKPEMNKQIKNLEISIDTLMAKIKSTMMTQEQIQKEYDALVKSSEELLSALQKKKQQEEEAERLRRIQEEMEKERKRREEDEKRRRKEEEERRMKLEMEAKRKQEEEERKKREDDEKRIQAEVEAQLARQKEEESQQQAVLEQERRDRELALRIAQSEAELISDEAQADLALRRSLDSYPVSKNDGTRPKMTPEQMAKEMSEFLSRGPAVLATKAAAGTKKYDLSKWKYAELRDTINTSCDIELLAACREEFHRRLKVYHAWKSKNKKRNTETEQRAPKSVTDYDFAPFLNNSPQQNPAAQIPARQREIEMNRQQRFFRIPFIRPADQYKDPQSKKKGWWYAHFDGPWIARQMELHPDKPPILLVAGKDDMEMCELNLEETGLTRKRGAEILPRQFEEIWERCGGIQYLQNAIESRQARPTYATAMLQSLLK
modifications: Cy3 label
notes: Myosin VI, human, the isoform containing both the long insert (LI) and short insert (SI); probably Myosin VI FL-SNAP (C-terminal SNAP, FLAG and 6X-His tags); Assay buffers held 10 uM calmodulin; The surface gliding assays used dark myosin VI FL-FLAG; also called Cy3-myosin VI; myosin VI FL
B2: Dab2 myosin interacting region (MIR) with C-terminal mCitrine (domain or fragment, human, UniProt P98082 675-713, looked up)
chain: SSGTLSAFASYFNSKVGIPQENADHDDFDANQLLNKINE-mCitrine
notes: Dab2, human, a.a; fluorophore joined through a flexible (Gly-Ser-Gly) x 2 repeat; Cloned into pBiex1; also called DAB2-MIR-mCit; mCit-MIR; not shown: mCitrine, C-terminal, kept
B3: Dab2 myosin interacting region (MIR) with C-terminal eGFP (domain or fragment, human, UniProt P98082 675-713, looked up)
chain: SSGTLSAFASYFNSKVGIPQENADHDDFDANQLLNKINE
notes: Dab2, human, a.a; fluorophore joined through a flexible (Gly-Ser-Gly) x 2 repeat; Held on DNA nanotubes or surfaces through a GFP nanobody (a tool); also called Dab2-MIR-GFP; GFP-tagged Dab2 MIR; not shown: eGFP, C-terminal, kept

Assays:
[1] = target: myosin VI CBD (UniProt Q64331); settings: cited from earlier work
Chain of myosin VI CBD (Q64331 1137-1262): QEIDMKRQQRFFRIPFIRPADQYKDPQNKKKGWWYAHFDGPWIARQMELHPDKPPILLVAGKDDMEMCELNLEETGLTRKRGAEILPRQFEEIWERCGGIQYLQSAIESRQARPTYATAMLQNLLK

[2] = target: B3; test: single-molecule TIRF binding assay; adaptor-GFP held through GFP nanobody-SNAP on DNA nanotubes; Cy3-labeled myosin VI at 50 pM in AB.BSA.Cam; 20 Hz for 3 min; bound and rebinding times fitted to a single-exponential decay; settings: both partners purified
[3] = target: T1, Myosin VI cargo-binding domain (CBD) …; test: FRET or BRET; bimolecular FRET titration in solution; CBD-mCer held constant at 30 nM, increasing DAB2-MIR-mCit titrated in; excitation 430 nm, cross-excitation spectra subtracted; settings: both partners purified
[4] = target: B1; test: single-molecule TIRF binding assay; adaptor-GFP held through GFP nanobody-SNAP on DNA nanotubes; Cy3-labeled myosin VI at 50 pM in AB.BSA.Cam; 20 Hz for 3 min; bound and rebinding times fitted to a single-exponential decay; settings: both partners purified

Molecule: Dab2 MIR (from UniProt P98082)
- Kd [1]: 0.5 µM

Molecule: B1
- half-life of the interaction [2]: ~1.2 s

Molecule: B2
- Kd [3]: ~0.184 µM

Molecule: B3
- koff [4]: 0.91 s⁻¹
